Like-named read-outs stand apart in the source and are kept apart here.
What was measured:
[1] = biological target: T1, recombinant water-soluble 'empty' HLA-DR4 (DRB1*0401) (human); assay: competitive binding ELISA on recombinant HLA-DR4; competitor biotinylated YEAK
T1 chain 1: not shown
T1 chain 2: not shown

[2] = biological target: T2, HLA-DR4 on L fibroblasts transfected with HLA-DR4 (human); assay: cell-based or functional assay
T2 chain 1: not shown
T2 chain 2: not shown

[3] = biological target: T3, HLA-DR1 on L fibroblasts transfected with HLA-DR1 (L57.23) (human); assay: cell-based or functional assay
T3 chain 1: not shown
T3 chain 2: not shown

[4] = biological target: T4, recombinant water-soluble 'empty' HLA-DR1 (DRB1*0101) (human)
T4 chain 1: not shown
T4 chain 2: not shown

[5] = biological target: T1, recombinant water-soluble 'empty' …
[6] = biological target: T4, recombinant water-soluble 'empty' …; assay: competitive binding ELISA on recombinant HLA-DR1; competitor biotinylated YEAK

## APKYVKQNTLKLATA (modifications not checked) [HA 306-318 bracketed by alanines at N- and C-terminals, …]
[1]
  affinity determined by competition: 8.2 µM
[2]
  inhibition of the DR4 3838 T cell clone (IL-2 secretion): < 60%
  inhibition of the DR4 D3 T cell clone (IL-2 secretion): < 60%
[3]
  inhibition of the response of 3.19 T cells (IL-2 secretion): > 98%
  inhibition of the response of 19.3 T cells (IL-2 secretion): > 95%
[4]
  affinity determined by competition: 13 µM
[5]
  affinity determined by competition: 26 µM
[6]
  affinity determined by competition: 3.3 µM
